# From IntAct's records for PubMed 29433439
# B1: Phosphocholine transferase AnkX (Legionella pneumophila subsp. pneumophila), Q5ZXN6 (parent)
# chain: MVKIMPNLPGLYFLQAYPSEEIWRLFVDGRFWSKENGWRGYESREPGCLNAALESLCSIALQVEKSGEEFELSVDLIKRIHKKCGKKVEELQEKNPGELRTDEPVSFGIPAGRASIKGIEEFLSLVFLTEGGAEFGPGKAGPFGPRFDKNYFKNLNPEQIPDLAKQIYFDMCKYGHSNTNHFYLAVMKNVDVYLEKITQSYNKEIKTAETLDEKLKIIVKHIRMYEVLHPFRDANGRTFVNNLLNILLMQQGLPPATFYEPNVFDLYSAEELVVVVKEAIFNTVEIIEQSKRKTPITLYGYHSSLEEQTKFRDMLDSPSYEKIKHMDFSDLNPEKLHLKTQKCLSSLNEQYPLHRGAIYLSDPGEIKLLLSNRNESQINQQIEQGAPPIYVGKTPAHLAVISGNMAMLDELIAKKADLSLQDYDGKTALHYAAECGNMQIMGKILKVVLSQEDAIKVLNIKDNHGKTAFHYAAEFGTPELISALTTTEVIQINEPDNSGSSAITLAYKNHKLKIFDELLNSGADISDELLDAIWARKDKETLGKIIAKNEKILLNKEAFRIAISLGSVSLVKKFLRAGVDIDIPLTKDKATPLMLSINSGNPKLVSYLLKKGANTRLTDTSGNSVLHYVFYSKAENREALANIITEKDKKLINQPNANGNPPLYNAVVVNDLKMATILLEMGARVDFEDRLGNNILHSAMRRCDLPIILDIVKKDSTLLHKRNSERRNPFHQALHEMHTFPSSKETEEIHFMNLSDLLLKEGVDLNKKDIKGKTILDIALSKQYFHLCVKLMKAGAHTNISSPSKFLKNSDANSILERPFKFKNDLKKELDNNPLIAMAQINDLYVQIKNNRIRTPTGYAPKEGVSFFKGKSNDAKAHDEVLSVLKELYDSKLTEMLGNLPGEGLEEIKRSQKFFDGELKLLIKNQDISRKVDKKSIQEAVGTSLKLKW
# partner: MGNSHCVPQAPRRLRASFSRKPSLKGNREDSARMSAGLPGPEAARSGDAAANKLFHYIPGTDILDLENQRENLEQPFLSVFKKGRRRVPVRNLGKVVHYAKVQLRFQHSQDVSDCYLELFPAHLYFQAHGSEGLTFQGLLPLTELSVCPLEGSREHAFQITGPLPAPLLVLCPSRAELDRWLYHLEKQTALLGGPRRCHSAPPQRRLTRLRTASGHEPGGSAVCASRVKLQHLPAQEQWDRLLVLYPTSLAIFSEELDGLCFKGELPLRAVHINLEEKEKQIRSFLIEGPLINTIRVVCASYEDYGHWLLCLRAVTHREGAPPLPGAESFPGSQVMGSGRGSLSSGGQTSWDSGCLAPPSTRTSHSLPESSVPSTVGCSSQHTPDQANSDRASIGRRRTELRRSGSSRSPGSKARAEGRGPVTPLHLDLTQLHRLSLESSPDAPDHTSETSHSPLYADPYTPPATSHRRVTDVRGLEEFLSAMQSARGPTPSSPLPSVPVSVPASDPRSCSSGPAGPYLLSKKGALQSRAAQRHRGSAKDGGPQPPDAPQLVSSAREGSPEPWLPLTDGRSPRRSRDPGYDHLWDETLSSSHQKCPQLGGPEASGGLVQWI
# Variants of: B1
# Settings: with pkhn1_human PLEKHN1, Q494U1
row,Variant,effect of a mutation on the interaction
1,H229A,decreasing interaction
